Experimental data reported in patent US20260063625A1, “COMPOSITIONS FOR AND METHODS OF DETECTING FOOD TOXINS” (priority 2022, published 2026).
Changes are numbered by the printed parent chain. Names and notes keep the numbering of the source.

B1: RiSxph: Saxiphilin of Ranitomeya imitator, Mimic poison frog, SEQ ID NO:6 (protein)
chain: MRRSSYAASQEMRMTLRVLLCLCLWALSSAAPNTRNVRWCVTSDTEEQKCNDLVTSCHVDEILLICVKKSSTEDCVRAISNGEADAISLDSKDVYKASLDPFNLKPIMTEAYSESEHTPCMRHRQSVLGGKIMKIGAFVPKCDEKGNYVPKQCHGSTGYCWCLNENGEEIEGTRTPPGNPGLTCENKANKPPCLKERQKLLSAKPSPAVFVPECDEKGNYRPQQSHVYSWCVDEYGEEVFGSRSFPGKPPKPCEASGETPCIKERNKVLSAAEPLLGAFVPDCDEKGYFSPLQSHGSTGYSWCVTKNGDEIKGTRTGPGQSPPTCEVPAPVTLHYAVAVVKKSSSFHLDQLKGKRSCHSAVGEAAGWVAPLNVLLKKKLLLWEEPEPKTIEKVASEIFSASCAPGAQEANLCEQCAGQEDKCTRGPGEPYYGDEGAFRCLREDKGDVAFVEDTALTGQYSDNFELLCPDNTRRPLSQYKICNFGRIPRHAVVTRSSGDKMKDITEYLLQAQKKECKLFSSTHGKDLLFEDTTSALIALPSAMDTFLFLGPDLFNGMKTLNGARPPQVNQQIRWCPQSKNEKKKCDDWSSVSGGAIKCTEPSSGLECIKMILKGEAEAVNLDIEHSYIALKCGLLPSVDEYRNKDDLIPCQIPGSEYSEFGSYRIVALVKKTDKDLTWNNLQGKKSCHTRAGDMIGWNIPVYLISKKTKNCDLGSYFSQSCAPGSPIDSNLCKLCIGDPQNPQANTKCSISDKEAYYGHEGAIRCLVEKGDVAFVPHTAIFENTDGKNPALWAKDLKSTDFELLCPDGSRAPVNDYKKCKLSGIANQIAITRPESVKDVVRIIQNQQSLYGRTGSQKDIFQMFSSSYGQNLLFSDRTQCLVEFDRMLDRDIMDDYFGKPFHKHLLRDNDCLPKSALASACSFHH
modifications: Ranitomeya imitator
B2: F784A: RcSxph mutant F784A (protein)
chain: MAPTFQTALFFTIISLSFAAPNAKQVRWCAISDLEQKKCNDLVGSCNVPDITLVCVLRSSTEDCMTAIKDGQADAMFLDSGEVYEASKDPYNLKPIIAEPYSSNRDLQKCLKERQQALAKKMIGHYIPQCDEKGNYQPQQCHGSTGHCWCVNAMGEKISGTNTPPGQTRATCERHELPKCLKERQVALGGDEKVLGRFVPQCDEKGNYEPQQFHGSTGYSWCVNAIGEEIAGTKTPPGKIPATCQKHDLVTTCHYAVAMVKKSSAFQFNQLKGKRSCHSGVSKTDGWKALVTVLVEKKLLSWDGPAKESIQRAMSKFFSVSCIPGATQTNLCKQCKGEEGKNCKNSHDEPYYGNYGAFRCLKEDMGDVAFLRSTALSDEHSEVYELLCPDNTRKPLNKYKECNLGTVPAGTVVTRKISDKTEDINNFLMEAQKRQCKLFSSAHGKDLMFDDSTLQLALLSSEVDAFLYLGVKLFHAMKALTGDAHLPSKNKVRWCTINKLEKMKCDDWSAVSGGAIACTEASCPKGCVKQILKGEADAVKLEVQYMYEALMCGLLPAVEEYHNKDDFGPCKTPGSPYTDFGTLRAVALVKKSNKDINWNNIKGKKSCHTGVGDIAGWVIPVSLIRRQNDNSDIDSFFGESCAPGSDTKSNLCKLCIGDPKNSAANTKCSLSDKEAYYGNQGAFRCLVEKGDVAFVPHTVVFENTDGKNPAVWAKNLKSEDFELLCLDGSRAPVSNYKSCKLSGIPPPAIVTREESISDVVRIVANQQSLYGRKGFEKDMFQLFSSNKGNNLLFNDNTQCLITADRQPKDIMEDYFGKPYYTTVYGASRSAMSSELISACTIKHC
B3: Y558F: RcSxph mutant Y558F (protein)
chain: B2 chain with Y577F, A803F
B4: Y795A: RcSxph mutant Y795A (protein)
chain: B2 chain with A803F, Y814A
B5: Q787E: RcSxph mutant Q787E (protein)
chain: B2 chain with A803F, Q806E
B6: I782F: RcSxph mutant I782F (protein)
chain: B2 chain with I801F, A803F
B7: I782A/Y558A: RcSxph double mutant I782A/Y558A (protein)
chain: B2 chain with Y577A, I801A, A803F
B8: Q787A: RcSxph mutant Q787A (protein)
chain: B2 chain with A803F, Q806A
B9: K789A: RcSxph mutant K789A (protein)
chain: B2 chain with A803F, K808A
B10: T563A: RcSxph mutant T563A (protein)
chain: B2 chain with T582A, A803F
B11: D785A: RcSxph mutant D785A (protein)
chain: B2 chain with A803F, D804A
B12: OsSxph: Saxiphilin of Oophaga sylvatica, Little devil poison frog, SEQ ID NO:5 (protein, listed as Oophaga sylvatica)
chain: MRMTLQVLLCLCLLVLSSAAPNSRNVRWCVTSDTEEQKCNDLVTSCHVDEILLICVKKSSKEDCVRAISNGEADAISLDSKDVYKASLDPFNLKPIMTEAYSESEQTPCMRHRQSVLGGKKMIIGAFVPKCDEKGNYVPKQCHDSTGFCWCLNENGEEIEGTRTPPGNSGLTCENKANKPPCLKERQKLLSAKPSPAVFVPECDEKGNYRPEQSHVYSWCVDEYGEEVLGSRTFPGKPPKPCEASGETPCIKERNKVLSAAEPLPGAFVPDCDEKGYFSPLQFHGSTGHSWCVTKNGEEIKGTRTRPGQTPPTCDVPAPATLHYAVAVVKKSSSFQLDQLKGKRSCHSAVGEAAGWVAPLNVLLKKKFLLWEEPEQKSTEKVASEIFSASCAAGAQEANLCEQCAGQEDKCTRGPGEPYYGDEGAIRCLRDDKGDVAFVEDTALTGQYSDNFELLCPDNTRRPLSQYKICNFGSVPRHAVVTRSTGDKMKEITEYLLQAQKKECKLFSSTHGKDLLFEDTTSALIALPSGMDTFLFLGPDLFNGMKTLNGAHPPRVKQKIRWCPQNKNEKKKCDDWSSVSGGSIKCTEPSSALECIKMILKDEADAVNLDAEHAYTALKCGLLPSLEEYRNKDDLIVCQIPGAEYSEFGSYRIVALVKKTDKDITWNNLQGKKSCHTHVGDMIGWNIPVYLISKKTKNCDLGSYFSQSCAPGSPIDSNLCKLCIGDPQNTEANTKCSLSDKEAYYGNEGAVRCLVETGDVAFVPHTAVFENTDGKNPALWAKDLKSTDFELLCPDGSRAPVSDYKKCKLSGIANHVTVTRPESVKDVVRITQNQESLYGRTGSQKDIFQMFSSSYGQNLLFNDRTQCLFEFDRMLDRDIMDDYLGKPFHKHLMSDNDCLPKSALATACSFHH
B13: MaSxph: Saxiphilin of Mantella aurantiaca, Golden mantella, SEQ ID NO:3 (protein, listed as Mantella aurantiaca)
chain: MALTFQTALYFTIIGLSFVTSSARDVRWCVISDLEQKKCNDLVGSCKVSGITLVCVHRSSTENCMTAIRDEQADAMFLDSGDVYKASMSPYNLKPIIAESYSSHKECLKKRQEALGGANVLGQFVPQCDEKGSYQPQQCYGSTGHCWCVNAIGEEIVGTKTQPGQTQATCERHDQTKCLKDRQKALAKKMIGGFVPQCDEKGNFKPRQCHGSTGYCWCTNANGEKIAATNTPPQQSPPTCERHDLDSCHYAVAVVKKSSIFQFNQLKGKRSCHSGVSKTDGWKAPVSVLVDKNLLSWDRAAKESIEKAVSKFFSDSCIPGATETNLCNQCMGEGGKKCMSSHDEPYYGDHGAFRCLKEDKGDVAFLKNTVLSDTHSEDYELLCPDNTRKPLNKYKECNLGKVPADAVVTRKSGDKIKDINDFLLEAQKKHCQLFSSAHGKDLMFDDSTTQLSLLPPEVDVFFFLGVQWLNTMKTLTADVKPPSKNKVRWCTVNNLEKMKCDDWSAVSGGAIECTEASSPEHCIKQIVKGEADAVTLDVQYMYEALKCGLLPAVEEYHNKDDFGPCKTPGSEIKDFGAKRAVALVKKSNKDINWHNLKGKKSCHTGVGDQAGWIIPVGLISRQIDNCNIDSFFSESCAPGSDTTSNFCKLCIGDPSNPMANTKCSLSDKEAYHGNEGAIRCLVEKGDVAFVHHTAVFENTDGKNPAEWAANLKSEDFEILCLDGSRAPVSNYMTCRLSGVPPRAIVTREESVSDVVRILINQQSLFGRNGFEKDMFQMFSSNKGQNLLFNDGTQCLIEFDRQPRGIMEDYFGKPYYNAVYNTSKCVLPSELTSACTFKHC

Experiment: Fluorescence polarization (FP) binding to fluorescein labeled STX
Details: T = 298K; for […]G (kcal mol^−1) relative to RcSxph: […]G = RT ln (Kd(XSxph)/Kd(RcSxph)); for […]G (kcal mol^−1) relative to wild-type RcSxph: […]G = RT ln (KdSxph mutant/KdSxph)
Procedure: […]; Measurements were performed at 25° C. on a Synergy H1 microplate reader (BioTek) using the polarization filter setting (excitation 485 nm, emission 528 nm). […]. The dissociation constants were calculated using GraphPad Prism by fitting fluorescence millipolarization (mP=P·10^−3, where P is polarization) as a function of Sxph concentration using the equation: P={(Pbound−Pfree) [Sxph]/(Kd+[Sxph])}+Pfree, where P is the polarization measured at a given Sxph concentration, Pfree is the […], and Pbound is the maximum polarization of Sxph bound by F-STX (Rossi and Taylor, Hansen et al.).

Molecule | […]G (kcal mol^−1) relative to RcSxph | […]G (kcal mol^−1) relative to wild-type RcSxph
B1 | -1.32 kcal/mol | 
B2 |  | 2.71 kcal/mol
B3 |  | -0.10 kcal/mol
B4 |  | 0.08 kcal/mol
B5 |  | -0.09 kcal/mol
B6 |  | 0.46 kcal/mol
B7 |  | -1.07 kcal/mol
B8 |  | 0.25 kcal/mol
B9 |  | -0.22 kcal/mol
B10 |  | -0.20 kcal/mol
B11 |  | 0.57 kcal/mol
B12 | -1.32 kcal/mol | 
B13 | -1.73 kcal/mol | 
